For assay [1], the target named is T1, human CD47 protein, His Tag (ACRObiosystems, Cat. No. CD7-H5227) (human, UniProt Q08722 19-139).
T1 construct: Bought protein; also called hCD47-His Tag protein; not shown: His tag
The assay can be described thus: Biacore SPR, antibody captured on CM5 chip, CD47-His protein, 25 C. On the procedure: (§1) The equilibrium dissociation constants KD (in unit M) were obtained by measuring the binding kinetics of the human CD47 protein (human CD47 protein, His Tag; ACRObiosystems, Cat. No. CD7-H5227) and cynomolgus monkey CD47 protein (cynomolgus/rhesus macaque CD47 protein, His Tag; ACRObiosystems, Cat. No. CD7-C52H1) to anti-CD47 antibodies (chimeric or humanized) using Biacore. The Biacore analysis was performed at 25° C. and data were recorded at a rate of 1 Hz.
(§2) At the beginning of each cycle, the diluted test antibody (1.5 μg/mL) was injected onto the experimental flowcell and maintained for 1 min to be captured.
(Surface plasmon resonance follows binding to a sensor surface in real time, without labels.)

Assay [2] has as its target T2, cynomolgus/rhesus macaque CD47 protein, His Tag (ACRObiosystems, Cat. No. CD7-C52H1) (cynomolgus monkey, UniProt A0A2K5X523 19-139).
T2 construct: Bought protein; also called Cynomolgus monkey CD47 protein; not shown: His tag
Described as above. The method, then: as §1, §2

T1 sequence (Q08722 19-139 limits assumed): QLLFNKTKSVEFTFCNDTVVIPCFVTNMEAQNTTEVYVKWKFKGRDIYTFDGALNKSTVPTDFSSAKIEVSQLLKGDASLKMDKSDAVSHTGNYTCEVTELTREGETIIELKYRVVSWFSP

B1: hz16E5-3.2 (antibody, human IgG4 S228P, kappa)
heavy: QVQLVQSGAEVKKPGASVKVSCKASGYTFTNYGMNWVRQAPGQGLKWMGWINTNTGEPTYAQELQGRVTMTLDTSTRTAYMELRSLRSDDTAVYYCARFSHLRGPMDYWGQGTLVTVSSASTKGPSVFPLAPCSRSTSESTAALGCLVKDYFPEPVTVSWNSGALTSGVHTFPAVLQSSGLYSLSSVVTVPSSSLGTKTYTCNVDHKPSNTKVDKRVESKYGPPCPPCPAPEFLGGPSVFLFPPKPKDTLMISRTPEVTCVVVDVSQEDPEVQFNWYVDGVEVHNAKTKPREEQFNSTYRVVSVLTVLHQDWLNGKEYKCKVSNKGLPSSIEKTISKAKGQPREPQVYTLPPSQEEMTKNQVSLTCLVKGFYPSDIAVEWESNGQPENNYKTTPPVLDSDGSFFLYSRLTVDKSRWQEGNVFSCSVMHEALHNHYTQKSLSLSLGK
light: DAQMTQSPSSLSASVGDRVTITCRSSQSLVHSNGYTYLHWYQQKPGKAPKLLIYKVSNRFSGVPSRFSGSGSGTDFTLTISSLQPEDFATYYCSQSTHVPPTFGQGTKLEIKRTVAAPSVFIFPPSDEQLKSGTASVVCLLNNFYPREAKVQWKVDNALQSGNSQESVTEQDSKDSTYSLSSTLTLSKADYEKHKVYACEVTHQGLSSPVTKSFNRGEC
notes: Humanized 16E5, full-length heavy and light chains, made in CHO cells
As to B1, the Kd stood at 17.1 nM in assay [1] and 3.1 nM in assay [2].

B2: hz16E5-3.3 (antibody, human IgG4 S228P, kappa)
heavy: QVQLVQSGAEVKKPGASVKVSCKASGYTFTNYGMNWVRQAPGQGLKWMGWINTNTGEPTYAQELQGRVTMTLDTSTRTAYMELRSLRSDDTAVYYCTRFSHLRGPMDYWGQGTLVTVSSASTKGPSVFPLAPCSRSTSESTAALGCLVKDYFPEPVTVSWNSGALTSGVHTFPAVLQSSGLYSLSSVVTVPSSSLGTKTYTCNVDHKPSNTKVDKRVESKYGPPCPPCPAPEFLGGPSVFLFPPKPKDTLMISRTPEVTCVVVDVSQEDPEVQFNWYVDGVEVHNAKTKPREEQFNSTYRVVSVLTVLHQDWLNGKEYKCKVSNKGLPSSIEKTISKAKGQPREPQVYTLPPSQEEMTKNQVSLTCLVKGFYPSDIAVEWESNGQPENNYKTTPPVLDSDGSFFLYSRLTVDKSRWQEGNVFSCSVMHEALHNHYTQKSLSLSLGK
light: DAQMTQSPSSLSASVGDRVTITCRSSQSLVHSNGYTYLHWYQQKPGKAPKLLIYKVSNRFSGVPSRFSGSGSGTDFTLTISSLQPEDFATYYCSQSTHVPPTFGQGTKLEIKRTVAAPSVFIFPPSDEQLKSGTASVVCLLNNFYPREAKVQWKVDNALQSGNSQESVTEQDSKDSTYSLSSTLTLSKADYEKHKVYACEVTHQGLSSPVTKSFNRGEC
notes: as for B1
As to B2, the Kd in assay [1] is 7.13 nM; in assay [2], 1.87 nM.

B3: hz14A9-2.3 (antibody, human IgG4 S228P, kappa, V domains shown)
VH: QVQLVQSGAEVKKPGASVKVSCKVSGFNIEDDYIEWVRQAPGQGLEWMGRIDPANDKTKYAQKFQGRVTMTGDTSTNTVYMELSSLRSEDTAVYYCARPGLRRYYSMDYWGQGTLVTVSS
VL: DIQMTQSPSSLSASVGDRVTITCKASENVVSYVSWYQQKPGKAPKLLIYGASNRYTGVPSRFIGSGSSTDFTLTISSLQPEDFATYYCGQSYSYPLTFGQGTKLEIKR
For the molecule B3, the figures for the Kd in assay [1] and in assay [2] were 0.204 nM and 3.07 nM, respectively.

B4: hz14A9-2.4 (antibody, human IgG4 S228P, kappa, V domains shown)
VH: QVQLVQSGAEVKKPGASVKVSCKVSGFNIEDDYIEWVRQAPGQGLEWMGRIDPANDKTKYAQKFQGRVTMTGDTSTNTVYMELSSLRSEDTAVYYCTRPGLRRYYSMDYWGQGTLVTVSS
VL: DIQMTQSPSSLSASVGDRVTITCKASENVVSYVSWYQQKPGKAPKLLIYGASNRYTGVPSRFIGSGSSTDFTLTISSLQPEDFATYYCGQSYSYPLTFGQGTKLEIKR
B4: the Kd was 8.55 nM in assay [1] and 2 nM in assay [2].

B5: Xi3F10 (antibody, human IgG4 S228P, kappa, V domains shown)
VH: EVQLQQSVAELMKPGASVKIYCKATGYTFSRYWIEWVKQRPGHGLEWIGEFIPGSDTTNFNEKFKGKATFTAEISSNTAYMQLSSLTSEDSAVYFCARGGLRRMDYWGQGTSVTVSS
VL: DIVMTQTPAIMSASPGEKVTMTCRASSSVSSTYLHWYQQKSGASPKLWIYTTSTLASGVPARFSGSGSGTSYSLTISSVEAEDAATYYCQQFSDSTWTFGGGTKLEIKR
notes: Chimeric: mouse VH on human IgG4 (S228P, EU) constant region, mouse VL on human kappa constant region; made in CHO cells; also called chimeric version of 3F10
As for B5, the Kd was found to be 0.767 nM in assay [1] and 1.04 nM in assay [2].

B6: Xi16E5 (antibody, human IgG4 S228P, kappa, V domains shown)
VH: EVQLQQSGPELKKPGETVKISCKASGYTFTNYGMNWVKQVPGKGLKWMGWINTNTGEPTYAEEFKGRFAFSLETSARTAFLQINNLKNEDTATYFCTRFSHLRGPMDYWGQGASVTVSS
VL: DAVMTQTPLSLPVSLGDQASISCRSSQSLVHSNGYTYLHWYLQKPGQSPKLLIYKVSNRFSGVPDRFSGSGSGTDFTLKISRLEAEDLGVYFCSQSTHVPPTFGGGTKLEIKR
notes: Chimeric: mouse VH on human IgG4 (S228P, EU) constant region, mouse VL on human kappa constant region; made in CHO cells; also called chimeric version of 16E5
With B6, the equilibrium dissociation constant (Kd) in assay [1] was determined as 9.06 nM; in assay [2], 2.92 nM.

What is called Kd is the constant that tells how readily two partners part at equilibrium. Read a low Kd as higher affinity.

Source of the values: US20240269278A1 (NANJING SHUNXIN PHARMACEUTICALS CO LTD OF CHIATAI TIANQING …, published 2024).
